From PMC11574045, “A cofactor-induced repressive type of transcription factor condensation can be induced by synthetic peptides to suppress tumorigenesis” (The EMBO Journal, 2024)

Experiments:
GFP-TEAD4 condensates = experiment: siRNA screening based on TEAD4 condensate; assay type: cell-based; conditions: Figure 2B source data; siRNA against the named gene; Z score based analysis
Description: siRNA reagents were obtained from the Dharmacon Human ON-TARGETplus siRNA Smartpool Library (Thermo) as described previously (Tang et al, [2020]). […] Lipofectamine RNAiMAX reagent (Thermo) at a volume of 0.05 μl per well was then added to the siRNA-loaded plates. Subsequently, cells expressing GFP-TEAD4 were seeded into the plate at 2000 cells per well. After subsequent transfection for 48 h, the cells were fixed with 4% PFA at room temperature for 30 min. DAPI was used to identify individual nuclei. The plates were kept at 4 °C in the dark before being analyzed using the Opera system. Twenty focus fields per well were scanned and analyzed. Scrambled siRNA was used as an internal reference on each plate.

[1] = tested on: HEK293FT cells transfected with TF library; experiment: Screening of TF condensates based on fluorescent puncta; assay type: cell-based; conditions: Figure 1B numerical data; TF library screen, one value per transcriptional factor
Summary of the method: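 Condensate formation is scored as Alexa 488-labelled puncta after Flag- or GAL4-tag immunostaining of fixed HEK293FT cells expressing individual TFs, with a 12 h glucose-free or glucose-containing culture preceding fixation.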

HGC-27 cells = experiment: siRNA screening based on cell growth; parameters: species or system human; conditions: Figure 2B source data; siRNA against the named gene; Z score based analysis
Description: For screening based on cell growth, HGC-27 cells (2000 per well) were seeded into a 96-well plate overnight. The individual siRNAs targeting 192 BioID-identified genes were then added into each well to a final concentration of 25 nM. After subsequent incubation for 48 h, the cells were analyzed using an ATP-based CellCounting-Lite^TM 2.0 reagent (Vazyme, Nanjing, China) according to the manufacturer’s instructions. The intracellular ATP contents were measured using an EnSight™ Multimode Microplate Reader (Perkin Elmer).

[2] = tested on: GFP-TEAD4 condensates in HEK293FT cells; experiment: GFP-TEAD4 condensate imaging, condensed fraction in cells; assay type: cell-based; conditions: Figure 2D source data, GFP-TEAD4 condensates with co-expressed cofactor, with or without 1,6-Hex, single measurement

B1: TEAD4 (protein, UniProt Q15561 1-434, looked up)
Transcriptional enhancer …: MEGTAGTITSNEWSSPTSPEGSTASGGSQALDKPIDNDAEGVWSPDIEQSFQEALAIYPPCGRRKIILSDEGKMYGRNELIARYIKLRTGKTRTRKQVSSHIQVLARRKAREIQAKLKDQAAKDKALQSMAAMSSAQIISATAFHSSMALARGPGRPAVSGFWQGALPGQAGTSHDVKPFSQQTYAVQPPLPLPGFESPAGPAPSPSAPPAPPWQGRSVASSKLWMLEFSAFLEQQQDPDTYNKHLFVHIGQSSPSYSDPYLEAVDIRQIYDKFPEKKGGLKDLFERGPSNAFFLVKFWADLNTNIEDEGSSFYGVSSQYESPENMIITCSTKVCSFGKQVVEKVETEYARYENGHYSYRIHRSPLCEYMINFIHKLKHLPEKYMMNSVLENFTILQVVTNRDTQETLLCIAYVFEVSASEHGAQHHIYRLVKE
GFP-TEAD4 condensates
  Z score of condensed fraction: 1.0247
[1]
  Z score of condensed fraction: 3.255
HGC-27 cells
  Z score of cell growth: 0.6975

B2: RFXANK (protein)
chain: MELTQPAEDLIQTQQTPASELGDPEDPGEEAADGSDTVVLSLFPCTPEPVNPEPDASVSSPQAGSSLKHSTTLTNRQRGNEVSALPATLDSLSIHQLAAQGELDQLKEHLRKGDNLVNKPDERGFTPLIWASAFGEIETVRFLLEWGADPHILAKERESALSLASTGGYTDIVGLLLERDVDINIYDWNGGTPLLYAVRGNHVKCVEALLARGADLTTEADSGYTPMDLAVALGYRKVQQVIENHILKLFQSNLVPADPE
GFP-TEAD4 condensates
  Z score of condensed fraction: -3.941
[2]; replicate 1 of 9
  Condensed fraction: 37.5428%
[2]; replicate 2 of 9
  Condensed fraction: 33.3337%
[2]; replicate 3 of 9
  Condensed fraction: 44.4467%
[2]; replicate 4 of 9
  Condensed fraction: 47.0652%
[2]; replicate 5 of 9
  Condensed fraction: 51.3041%
[2]; replicate 6 of 9
  Condensed fraction: 37.5405%
[2]; replicate 7 of 9
  Condensed fraction: 26.519%
[2]; replicate 8 of 9
  Condensed fraction: 36.7045%
[2]; replicate 9 of 9
  Condensed fraction: 37.5001%
HGC-27 cells
  Z score of cell growth: 3.094

B3: CRY1 (protein, UniProt Q16526 1-586, looked up)
Cryptochrome-1: MGVNAVHWFRKGLRLHDNPALKECIQGADTIRCVYILDPWFAGSSNVGINRWRFLLQCLEDLDANLRKLNSRLFVIRGQPADVFPRLFKEWNITKLSIEYDSEPFGKERDAAIKKLATEAGVEVIVRISHTLYDLDKIIELNGGQPPLTYKRFQTLISKMEPLEIPVETITSEVIEKCTTPLSDDHDEKYGVPSLEELGFDTDGLSSAVWPGGETEALTRLERHLERKAWVANFERPRMNANSLLASPTGLSPYLRFGCLSCRLFYFKLTDLYKKVKKNSSPPLSLYGQLLWREFFYTAATNNPRFDKMEGNPICVQIPWDKNPEALAKWAEGRTGFPWIDAIMTQLRQEGWIHHLARHAVACFLTRGDLWISWEEGMKVFEELLLDADWSINAGSWMWLSCSSFFQQFFHCYCPVGFGRRTDPNGDYIRRYLPVLRGFPAKYIYDPWNAPEGIQKVAKCLIGVNYPKPMVNHAEASRLNIERMKQIYQQLSRYRGLGLLASVPSNPNGNGGFMGYSAENIPGCSSSGSCSQGSGILHYAHGDSQQTHLLKQGRSSMGTGLSGGKRPSQEEDTQSIGPKVQRQSTN
[1]
  Z score of condensed fraction: -0.5227
